This is an account of results in patent US20260159601A1.

For this experiment, the target named is human CD20 (human) (UniProt P11836). Put plainly: flow cytometry on a human B-cell lymphoma cell line, 30 min at 4 C, detection with FITC-labeled F(ab)'2 goat anti-human Fc-gamma-specific antibody, median fluorescence intensity.
Sequence of human CD20 (human) (P11836 whole entry): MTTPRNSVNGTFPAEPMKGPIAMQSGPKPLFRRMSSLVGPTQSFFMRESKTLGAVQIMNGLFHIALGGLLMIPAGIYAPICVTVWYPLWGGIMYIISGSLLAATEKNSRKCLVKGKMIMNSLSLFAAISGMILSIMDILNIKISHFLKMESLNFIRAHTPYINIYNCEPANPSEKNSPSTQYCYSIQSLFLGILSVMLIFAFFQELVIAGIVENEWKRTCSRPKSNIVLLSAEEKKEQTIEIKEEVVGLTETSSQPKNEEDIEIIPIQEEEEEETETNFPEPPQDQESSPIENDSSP

As to rituximab (antibody), the EC50 (read off the curve) (commonly the midpoint of the concentration-response curve) was found to be 5 nM.
